# Data as given in US20020077284A1 (WHITEHEAD INSTITUTE FOR BIOMEDICAL RESEARCH, published 2002).
# Positions of bridges follow the written chain, without caps; N, C: chain ends. Non-standard residues stand in square brackets, D forms with d.
# Key:
# [1] = target: T1, HIV-1 envelope protein gp41 subunit (HXB2 envelope), N-helix coiled-coil (HIV-1 (HXB2), UniProt P04578 512-856); experiment: cell-based or functional assay
# [2] = target: T1, HIV-1 envelope protein gp41 subunit …; experiment: cell-based or functional assay; remark: listed apart in the source
# [3] = target: T2, N36 peptide of HIV-1 gp41 (HIV-1); experiment: circular dichroism thermal melt at 222 nm; 10 µM C34 peptide + 10 µM N36 in PBS pH 7.0
# T2 construct: Synthetic peptide; forms the trimeric N36 coiled-coil of the N36/C34 complex
# [4] = target: T2, N36 peptide of HIV-1 gp41; experiment: circular dichroism thermal melt of the N36/C34 variant complex
Binder,Tm (apparent melting temperature of the N36/C34 complex) [3],IC50 values (nanomolar) for cell fusion [1],IC50 values (nanomolar) for virus entry [1],Tm (apparent melting temperature of the N36/C34 complex) [4],also measured
Ac-[dK][dK]G[dA][dC][dE][dA][dR][dH][dR][dE][dW][dA][dW][dL][dC][dA][dA]-NH2 (disulfide 5-16 (inferred)) [D10pep1a],,,,,"IC50 for inhibition of syncytia formation, against D10pep1 [1]: ~2 fold"
Ac-WMEWDAEINNYTSLIHSLIEESQNQQEKNEQELL-NH2 (Position in gp41 numbering) [C34 peptide Arg^633→Ala],65 ° C.,,,,IC50 (nM) cell fusion [2]: 0.76 nM; IC50 (nM) viral entry [2]: 2.6 nM
Ac-WMELDREINNYTSLIHSLIEESQNQQEKNEQELL-NH2 [C34 peptide Trp^631→Leu],,3.2 nM,5.3 nM,50 ° C.,
Ac-WMEGDREINNYTSLIHSLIEESQNQQEKNEQELL-NH2 (Position in gp41 numbering) [C34 peptide Trp^631→Gly],,25 nM,38 nM,35 ° C.,
Ac-WMEFDREINNYTSLIHSLIEESQNQQEKNEQELL-NH2 [C34 peptide Trp^631→Phe],,1.6 nM,3.61 nM,59 ° C.,
Ac-WMEADREINNYTSLIHSLIEESQNQQEKNEQELL-NH2 (Position in gp41 numbering) [C34 peptide Trp^631→Ala],37 ° C.,,,,decrease in inhibitory activity against wildtype C34 [1]: ~30 fold
Ac-WMEWDREANNYTSLIHSLIEESQNQQEKNEQELL-NH2 (Position in gp41 numbering) [C34 peptide Ile^635→Ala],55 ° C.,,,,decrease in inhibitory activity against wildtype C34 [1]: ~2 fold; IC50 (nM) cell fusion [2]: 0.96 nM; IC50 (nM) viral entry [2]: 4.1 nM
Ac-WMEVDREINNYTSLIHSLIEESQNQQEKNEQELL-NH2 [C34 peptide Trp^631→Val],,4.5 nM,13 nM,43 ° C.,
Ac-[dK][dK]G[dA][dC][dE][dL][dL]G[dW][dE][dW][dA][dW][dL][dC][dA][dA]-NH2 (disulfide 5-16 (inferred)) [D10pep5],,,,,"IC50, syncytia assay [1]: ~6000 nM"
Ac-[dK][dK][dK][dK]G[dA][dC][dE][dL][dL]G[dW][dE][dW][dA][dW][dL][dC][dA][dA]-NH2 (disulfide 7-18 (inferred)) [D10pep5a],,,,,"IC50 for inhibition of syncytia formation, against D10pep5 [1]: ~2 fold"
